From article PMC2935179 come the findings set out here.

The target in data set [1] is T1, Δ22 (FLI portion of EWS/FLI);FLI ETS domain (;, UniProt Q01543;Q01543 220-452;270-371, |).
T1 sequence 1: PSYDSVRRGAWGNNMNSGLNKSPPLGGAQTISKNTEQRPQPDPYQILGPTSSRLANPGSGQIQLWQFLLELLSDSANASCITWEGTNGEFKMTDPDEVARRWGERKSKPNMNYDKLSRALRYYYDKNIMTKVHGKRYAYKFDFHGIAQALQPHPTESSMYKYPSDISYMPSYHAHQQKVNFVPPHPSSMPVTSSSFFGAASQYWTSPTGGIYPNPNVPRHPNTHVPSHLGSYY
T1 sequence 2: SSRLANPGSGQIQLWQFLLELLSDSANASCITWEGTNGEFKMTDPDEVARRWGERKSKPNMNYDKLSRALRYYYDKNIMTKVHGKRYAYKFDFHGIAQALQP
Nature of the data set: EMSA.

The target of data set [2] is T2, Δ22 (FLI portion of EWS/FLI) (UniProt Q01543 220-452).
T2 sequence: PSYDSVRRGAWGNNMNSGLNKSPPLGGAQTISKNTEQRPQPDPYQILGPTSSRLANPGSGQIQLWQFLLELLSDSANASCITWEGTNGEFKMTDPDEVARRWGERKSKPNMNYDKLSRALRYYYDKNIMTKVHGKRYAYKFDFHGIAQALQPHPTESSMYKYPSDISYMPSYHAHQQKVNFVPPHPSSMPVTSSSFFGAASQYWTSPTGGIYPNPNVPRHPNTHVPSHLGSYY
Kind of data set: fluorescence polarization stoichiometry. A general note: Polarisation of emitted light reports the rotation of a fluorescent probe.

The target of the next data set is T3, ETS1 (UniProt P14921 1-441).
T3 sequence: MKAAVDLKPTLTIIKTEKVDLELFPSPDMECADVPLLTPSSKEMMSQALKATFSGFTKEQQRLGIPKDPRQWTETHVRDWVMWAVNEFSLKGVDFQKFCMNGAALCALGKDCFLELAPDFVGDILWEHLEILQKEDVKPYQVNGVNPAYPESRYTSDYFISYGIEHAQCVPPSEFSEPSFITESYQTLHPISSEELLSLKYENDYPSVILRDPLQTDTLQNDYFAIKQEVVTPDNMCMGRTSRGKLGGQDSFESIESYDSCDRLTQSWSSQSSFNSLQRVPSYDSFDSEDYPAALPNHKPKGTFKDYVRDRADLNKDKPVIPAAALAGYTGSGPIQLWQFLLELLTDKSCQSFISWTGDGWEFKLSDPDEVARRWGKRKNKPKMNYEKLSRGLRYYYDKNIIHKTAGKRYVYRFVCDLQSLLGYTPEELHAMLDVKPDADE
Kind of data set: EMSA. On the technique in general: A gel shift assay detects complexes by their altered migration in electrophoresis.

In another data set the target is ELF1 (UniProt P32519 1-619). Kind of data set: EMSA.
Data set [3] has as its target T1, Δ22 (FLI portion of EWS/FLI);FLI ETS …. Nature of the data set: EMSA. This is another data set of the same source.

Where two headings read alike, the source gives them in different places.

ELF1, sequence (P32519 whole entry): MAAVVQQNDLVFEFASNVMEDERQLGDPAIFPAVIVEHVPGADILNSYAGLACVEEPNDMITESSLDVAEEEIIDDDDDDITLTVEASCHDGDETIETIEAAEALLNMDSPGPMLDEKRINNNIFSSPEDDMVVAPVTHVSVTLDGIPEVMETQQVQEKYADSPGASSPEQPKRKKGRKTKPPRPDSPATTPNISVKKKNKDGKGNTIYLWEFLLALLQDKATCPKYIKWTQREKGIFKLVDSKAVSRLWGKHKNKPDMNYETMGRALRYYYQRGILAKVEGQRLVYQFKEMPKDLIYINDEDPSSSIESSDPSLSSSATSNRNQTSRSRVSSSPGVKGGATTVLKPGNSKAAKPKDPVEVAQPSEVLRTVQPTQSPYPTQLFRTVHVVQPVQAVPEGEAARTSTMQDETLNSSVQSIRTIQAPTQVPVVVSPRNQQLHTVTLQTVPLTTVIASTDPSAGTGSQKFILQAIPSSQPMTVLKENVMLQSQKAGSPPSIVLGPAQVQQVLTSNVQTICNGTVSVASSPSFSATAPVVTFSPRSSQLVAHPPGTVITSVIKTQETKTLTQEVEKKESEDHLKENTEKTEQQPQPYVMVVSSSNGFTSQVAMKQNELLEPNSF

B1: 6 GGAA motifs (dsDNA)
DNA 1: TGCAGGAAGGAAGGAAGGAAGGAAGGAAAGCT
DNA 2: AGCTTTCCTTCCTTCCTTCCTTCCTTCCTGCA
Turning to B1, the binding result in data set [1] and in data set [2] was “binds” each time.

B2: 5 GGAA motifs (dsDNA)
DNA 1: TGCAGGAAGGAAGGAAGGAAGGAAAGCT
DNA 2: AGCTTTCCTTCCTTCCTTCCTTCCTGCA
For B2, the binding result in data set [1] and in data set [2] was “binds” in each case.

B3: 7 GGAA motifs (dsDNA)
DNA 1: TGCAGGAAGGAAGGAAGGAAGGAAGGAAGGAAAGCT
DNA 2: AGCTTTCCTTCCTTCCTTCCTTCCTTCCTTCCTGCA
For B3, the binding result (with ETS1; with ELF1; in data set [1]; in data set [2]) was “binds” in each case.

B4: 4 GGAA motifs (dsDNA)
DNA 1: TGCAGGAAGGAAGGAAGGAAAGCT
DNA 2: AGCTTTCCTTCCTTCCTTCCTGCA
For the molecule B4, the binding result in data set [3] was “binds”.
